Measured values published in patent US8017829.

Tested on: Cre recombinase (bacteriophage P1?)
Test: cell_activity
Settings: rice plant crosses; excision confirmed by Southern blot

lox site gave an activity (% GUS+ progeny (19/75)) of 25.3.
